Source: article PMC12450465, “Oligomerization and exocyst coupling underlie Spa2-mediated focusing of polarized growth in fission yeast” (Journal of Cell Science, 2025)
Each block holds one binder with its values, some of them ahead of it.

B1: FLAG–Spa2(200–360) (domain or fragment, S. pombe, UniProt O42869 200-360, looked up)
chain: NTVQANNSSTSSLSQGAQTGIDSSSNYLSRIEMLESSLAKSNSLLDSSKSEMEALKAKSISDATKHKNEIFQLEEKLHEASHEAEISIKKLNDAENRIKELENNPTLSFNPELEKNLKLMQELIVAESSKTQHIVELESCIDSLKAETERWKKVAINAKSA
notes: also called Spa2(200–360)–FLAG
B2: His6–Pos1 (natural protein, S. pombe, UniProt O13743 1-269, looked up)
chain: MAFSPANSFLINKSICESKEVEPLEANLFGKLHNKLLICKAKKENLEKKLAYQMMYSKLLKSLPKLSSLEENKLTKLKAPIEDMENTKKELEEIRKQSTETELRYLKSLSNTLSFGTLSLSNEINKVGPSASFMLKEVHDSVQVLEQRLEKMGLIEKPSESSESSIYSILASLKHTNDSLQKKELSPHEIAESPSSHSTSPMGRNVDTETLSFLLIDWQRLCAEQNTFLRDITNNMSSSVPQDVLSQLRQFFFRSELLSDKLSNLCSES
notes: Pos1, S. pombe; also called His6-tagged Pos1; source: Rosetta2(DE3)pLysS bacteria (pETDuet); alone: purified on nickel magnetic beads; not shown: His6, N-terminal, kept

What was measured:
His6–Pos1 = target: B2; assay: SEC; Superose 6 10/300 GL, 0.5 ml/min, 4°C, 10 mM Tris-HCl pH 7.5, 150 mM NaCl, 0.5 mM EDTA; each protein alone or the co-purified complex; sizes estimated from calibration standards; conditions: both partners purified
FLAG–Spa2(200–360) = target: B1; assay: pull-down; co-purification: His6–Pos1 and FLAG–Spa2(200–360) co-produced in bacteria with a dual expression system, purified on DYKDDDDK Fab-Trap agarose, eluted with 3×FLAG peptide; SDS-PAGE, Coomassie Blue; conditions: partners not purified
MBP–Pos1 = target: T1, MBP–Pos1 (S. pombe, UniProt O13743 1-269); assay: pull-down; GST proteins left on beads, incubated with eluted MBP proteins in GST buffer for 40 min at 4°C; washed three times; SDS-PAGE, Coomassie Blue; conditions: both partners purified
T1 construct: Pos1, S. pombe; source: Rosetta2(DE3)pLysS bacteria, purified on amylose beads, eluted with 10 mM maltose; not shown: MBP, N-terminal, kept
T1 sequence (looked up): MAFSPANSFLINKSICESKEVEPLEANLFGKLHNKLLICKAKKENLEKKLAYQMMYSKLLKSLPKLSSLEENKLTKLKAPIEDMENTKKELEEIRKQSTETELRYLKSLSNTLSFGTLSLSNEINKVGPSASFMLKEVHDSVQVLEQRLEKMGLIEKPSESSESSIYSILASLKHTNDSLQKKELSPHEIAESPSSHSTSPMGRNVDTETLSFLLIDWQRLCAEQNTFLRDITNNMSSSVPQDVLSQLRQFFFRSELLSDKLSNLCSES

Binder: B1
binding result (His6–Pos1): binds

Binder: B2
stoichiometry N (FLAG–Spa2(200–360)): ~1

binding result (MBP–Pos1): binds
B3: GST–Spa2(305–360) (domain or fragment, S. pombe, UniProt O42869 305-360, looked up)
chain: TLSFNPELEKNLKLMQELIVAESSKTQHIVELESCIDSLKAETERWKKVAINAKSA
notes: not shown: GST, N-terminal, kept
